The test concerns the target α-Synuclein preformed fibrils (α-Syn PFF) (mouse, UniProt O55042 1-140). Description: ELISA. In general terms: An ELISA detects its analyte on a solid surface through an enzyme-linked reagent.

B1: ΔCARD hNOD2-Fc (Fc fusion)
chain: CKKYMAKLRTTVSAQSRFLSTYDGAETLCLEDIYTENVLEVWADVGMAGPPQKSPATLGLEELFSTPGHLNDDADTVLVVGEAGSGKSTLLQRLHLLWAAGQDFQEFLFVFPFSCRQLQCMAKPLSVRTLLFEHCCWPDVGQEDIFQLLLDHPDRVLLTFDGFDEFKFRFTDRERHCSPTDPTSVQTLLFNLLQGNLLKNARKVVTSRPAAVSAFLRKYIRTEFNLKGFSEQGIELYLRKRHHEPGVADRLIRLLQETSALHGLCHLPVFSWMVSKCHQELLLQEGGSPKTTTDMYLLILQHFLLHATPPDSASQGLGPSLLRGRLPTLLHLGRLALWGLGMCCYVFSAQQLQAAQVSPDDISLGFLVRAKGVVPGSTAPLEFLHITFQCFFAAFYLALSADVPPALLRHLFNCGRPGNSPMARLLPTMCIQASEGKDSSVAALLQKAEPHNLQITAAFLAGLLSREHWGLLAECQTSEKALLRRQACARWCLARSLRKHFHSIPPAAPGEAKSVHAMPGFIWLIRSLYEMQEERLARKAARGLNVGHLKLTFCSVGPTECAALAFVLQHLRRPVALQLDYNSVGDIGVEQLLPCLGVCKALYLRDNNISDRGICKLIECALHCEQLQKLALFNNKLTDGCAHSMAKLLACRQNFLALRLGNNYITAAGAQVLAEGLRGNTSLQFLGFWGNRVGDEGAQALAEALGDHQSLRWLSLVGNNIGSVGAQALALMLAKNVMLEELCLEENHLQDEGVCSLAEGLKKNSSLKILKLSNNCITYLGAEALLQALERNDTILEVWLRGNTFSLEEVDKLGCRDTRLLL
In turn, B1 yielded an equilibrium dissociation constant (Kd) of 16.4 µM.

B2: ΔNBD hNOD2-Fc (Fc fusion)
chain: MGEEGGSASHDEEERASVLLGHSPGCEMCSQEAFQAQRSQLVELLVSGSLEGFESVLDWLLSWEVLSWEDYEGFHLLGQPLSHLARRLLDTVWNKGTWACQKLIAAAQEAQADSQSPKLHGCWDPHSLHPARDLQSHRPAIVRRLHSHVENMLDLAWERGFVSQYECDEIRLPIFTPSQRARRLLDLATVKANGLAAFLLQHVQELPVPLALPLEAATCKKYMAKLRTTVSAQSRFLSTYDGAETLCLEDIYTENVLEVWADVGMAGPPQKSPATLGLEELFSTPGHLNDDAADVPPALLRHLFNCGRPGNSPMARLLPTMCIQASEGKDSSVAALLQKAEPHNLQITAAFLAGLLSREHWGLLAECQTSEKALLRRQACARWCLARSLRKHFHSIPPAAPGEAKSVHAMPGFIWLIRSLYEMQEERLARKAARGLNVGHLKLTFCSVGPTECAALAFVLQHLRRPVALQLDYNSVGDIGVEQLLPCLGVCKALYLRDNNISDRGICKLIECALHCEQLQKLALFNNKLTDGCAHSMAKLLACRQNFLALRLGNNYITAAGAQVLAEGLRGNTSLQFLGFWGNRVGDEGAQALAEALGDHQSLRWLSLVGNNIGSVGAQALALMLAKNVMLEELCLEENHLQDEGVCSLAEGLKKNSSLKILKLSNNCITYLGAEALLQALERNDTILEVWLRGNTFSLEEVDKLGCRDTRLLL
B2 gave a Kd of 0.42 µM.

What is called Kd is a measure of binding affinity in units of concentration.

Source of the values: paper doi:10.1101/2024.02.19.580982 (bioRxiv, 2024).
